For two molecules, Kd results are on record in article PMC4582013.

Read-outs that look alike come from different tables or passages of the source.

In data set [1] the target is T1, DNA polymerase IV (Dpo4) (Sulfolobus solfataricus, UniProt Q97W02 1-352).
T1 sequence: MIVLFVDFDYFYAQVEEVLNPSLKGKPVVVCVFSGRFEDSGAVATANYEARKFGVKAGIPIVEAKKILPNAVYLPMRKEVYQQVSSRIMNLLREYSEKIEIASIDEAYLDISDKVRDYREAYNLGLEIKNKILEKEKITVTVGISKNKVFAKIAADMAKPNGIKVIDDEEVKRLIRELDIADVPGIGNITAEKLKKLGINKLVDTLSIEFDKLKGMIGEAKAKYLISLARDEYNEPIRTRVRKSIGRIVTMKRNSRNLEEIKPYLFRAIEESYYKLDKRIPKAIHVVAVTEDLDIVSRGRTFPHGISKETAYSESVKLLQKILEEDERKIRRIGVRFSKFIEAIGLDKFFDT
Kind of data set: EMSA.

The target of data set [2] is T1, DNA polymerase IV (Dpo4). Kind of data set: EMSA. This is another data set of the same source. Background: A gel shift assay detects complexes by their altered migration in electrophoresis.

B1: 21/26-mer-dG1,8 (dsDNA)
DNA 1: AACGACGGCCAGTGAATTCGC
DNA 2: CCCGCGCGAATTCACTGGCCGTCGTT
modifications: template G6 (from 5') is dG1,8 = 8-(deoxyguanosin-N2-yl)-1-aminopyrene; lesion paired with primer 3' end
The molecule B1 registered a Kd in the data set with DNA polymerase IV (Dpo4) [1] of 27 ± 3 nM.

B2: 20/26-mer-dG1,8 (dsDNA)
DNA 1: AACGACGGCCAGTGAATTCG
DNA 2: CCCGCGCGAATTCACTGGCCGTCGTT
modifications: template G6 (from 5') is dG1,8 = 8-(deoxyguanosin-N2-yl)-1-aminopyrene; lesion is the templating base
Turning to B2, the affinity in the data set with DNA polymerase IV (Dpo4) [2], expressed as Kd, was 9 ± 2 nM.

The Kd is the free concentration of one partner at which half of the binding sites on the other are occupied at equilibrium, for simple one-to-one binding. The low end stands for a tighter complex, the high end for a looser complex.
